This note sets out measurements from patent US20130331333A1 (HADASIT MEDICAL RESEARCH SERVICES AND DEVELOPMENT, published 2013).

First the molecules themselves.
B1: GST-PH-Etk/Bmx (other, UniProt P51813 1-111, looked up)
chain: MDTKSILEELLLKRSQQKKKMSPNNYKERLFVLTKTNLSYYEYDKMKRGSRKGSIEIKKIRCVEKVNLEEQTPVERQYPFQIVYKDGLLYVYASNEESRSQWLKALQKEIR
notes: domain: PH domain; Made as in Chen et al. 2001; also called GST-Etk-PH; GST-Etk/Bmx; not shown: GST tag
B2: wild-type human protease-activated receptor 1 (wt hPar1) (receptor, UniProt P25116 42-425, looked up)
chain: SFLLRNPNDKYEPFWEDEEKNESGLTEYRLVSINKSSPLQKQLPAFISEDASGYLTSSWLTLFVPSVYTGVFVVSLPLNIMAIVVFILKMKVKKPAVVYMLHLATADVLFVSVLPFKISYYFSGSDWQFGSELCRFVTAAFYCNMYASILLMTVISIDRFLAVVYPMQSLSWRTLGRASFTCLAIWALAIAGVVPLLLKEQTIQVPGLNITTCHDVLNETLLEGYYAYYFSAFSAVFFFVPLIISTVCYVSIIRCLSSSAVANRSKKSRALFLSAAVFCIFIICFGPTNVLLIAHYSFLSHTSTTEAAYFAYLLCVCVSSISCCIDPLIYYYASSECQRYVYSILCCKESSDPSSYNSSGQLMASKMDTCSSNLNNSIYKKLLT
notes: whole, on cells; Tested as protein in cell lysates (pull-down, co-immunoprecipitation, antibody array)
B3: Y383A hPar1 (receptor, human, UniProt P25116 42-425, looked up)
chain: B2 chain with Y342A
notes: whole, on cells
B4: HA-tagged wt hPar1 (receptor, human, UniProt P25116 42-425, looked up)
chain: B2 chain
notes: whole, on cells; Tested in lysates of transfected cells; also called HA-wt hPar1; HA-wthPar1; not shown: HA tag added downstream of the ATG start codon
B5: Y381A & Y383A hPar1 double mutant (receptor, human, UniProt P25116 42-425, looked up)
chain: B2 chain with Y340A, Y342A
notes: whole, on cells; also called Y381A&383A hPar1
B6: Y381A hPar1 (receptor, human, UniProt P25116 42-425, looked up)
chain: B2 chain with Y340A
notes: whole, on cells; also called hPar1-Y381A
B7: GST-PAR2 C-tail wt (other, human, UniProt P55085 348-397, looked up)
chain: SHDFRDHAKNALLCRSVRTVKQMQVSLTSKKHSRKSSSYSSSSTTVKTSY
notes: domain: PAR2 C-tail; not shown: GST tag

Test [1] has as its target B2. Briefly: cell lysates on GST-Etk-PH column, anti-PAR1 blot. The procedure:
The IP was performed using anti-PAR1 (ATAP, Santa Cruz, Calif.). FIGS. 7B and 7C are photographs of gels showing peptide competition for PAR1 binding to GST-PH-Etk/Bmx.
GST fusion protein columns. Fusion proteins were purified from transformed Escherichia coli bacteria that had been stimulated with isopropyl-β-D-thio-galactopyranoside (IPTG) at a concentration of […]. Bacteria were lysed according to published procedures, and then immobilized on glutathione Sepharose beads (Pharmacia). Briefly, MDA-MB-435 cell lysates were applied to GST-PAR1C-tail or GST control columns. After 2 h binding periods to the designated protein/s cell lysates to the columns, a washing step was performed. The washes (×3) were carried out using a “wash buffer” including: 100 mM NaCL, 20 mM EDTA, 10 mM Tris, pH 8.0 and 1% Triton ×100. This step was performed in order to wash out all non-specific proteins, leaving the GST-PAR₁-C-tail column firmly bound to targeted cell lysate proteins. Next, elution of bound proteins was performed via the addition of gel “sample buffer” and appropriate boiling. The samples were run electrophoretically on SDS-PAGE gels, followed by immunoblotting with the indicated antibodies and ECL detection. GST-PH-Etk/Bmx. The PH domain in Etk/Bmx was bound to GST column as previously described (Chen R, et al. (2001) Nat Cell Biol. 3: 439-444). […]

The target in test [2] is T1, Etk/Bmx (epithelial tyrosine kinase), wild type (UniProt P51813 1-675).
T1 construct: Plasmids after Tsai et al. 2000; also called wt-Etk
T1 sequence (looked up): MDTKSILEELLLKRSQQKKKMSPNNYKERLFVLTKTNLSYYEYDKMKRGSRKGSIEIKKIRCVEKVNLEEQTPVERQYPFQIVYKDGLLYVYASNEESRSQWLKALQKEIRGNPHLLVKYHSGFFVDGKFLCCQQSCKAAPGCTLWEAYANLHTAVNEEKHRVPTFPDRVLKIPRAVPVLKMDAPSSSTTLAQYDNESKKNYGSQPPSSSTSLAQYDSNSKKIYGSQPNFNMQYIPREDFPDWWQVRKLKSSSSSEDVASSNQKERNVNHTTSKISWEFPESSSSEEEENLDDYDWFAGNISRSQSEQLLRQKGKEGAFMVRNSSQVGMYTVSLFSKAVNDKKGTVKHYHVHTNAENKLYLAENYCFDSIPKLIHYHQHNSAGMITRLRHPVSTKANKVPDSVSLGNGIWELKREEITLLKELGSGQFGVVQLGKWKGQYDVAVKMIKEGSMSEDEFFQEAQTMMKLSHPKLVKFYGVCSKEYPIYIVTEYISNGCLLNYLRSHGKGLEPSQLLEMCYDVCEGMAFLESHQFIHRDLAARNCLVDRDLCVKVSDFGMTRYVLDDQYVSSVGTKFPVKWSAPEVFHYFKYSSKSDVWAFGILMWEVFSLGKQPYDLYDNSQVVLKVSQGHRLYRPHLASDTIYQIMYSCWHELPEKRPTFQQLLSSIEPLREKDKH
The test is described as follows: antibody array with MDA-MB-435 lysates before and after PAR1 activation, biotinylated anti-PAR1 detection. The procedure: (§1) Antibody array: A custom-made antibody array (hypromatrix) containing thirty antibodies against various proteins was prepared (FIG. 1). The antibodies were immobilized on a membrane, each at a pre-determined position, while retaining their capabilities of recognizing and capturing antigens as well as antigen-associated proteins. MDA-MB-435 cells were activated for 10 min with thrombin (1 U/ml). Untreated or activated cells were lysed with Triton extraction solution: 15 mM Tris, pH 7.5, 120 mM NaCl, 25 mM KCl, 2 mM EGTA, 2 mM EDTA, 0.1 mM DTT, 0.5% Triton X-100, […] and 0.5 mM PMSF. Protein extract was incubated on pre-blocked membrane for 2 h at room temperature. The antibody array was washed with TBST and incubated with biotinylated PAR₁ antibody (ATAP) for 2 h at room temperature. The antibody array was washed again with TBST, and the membrane was incubated with HRP-conjugated streptavidin for 1 h. Protein-protein interactions were detected by ECL and exposure to X-ray film.
(§2) To detect the putative mediator(s) linking PAR1 to potential signaling proteins, custom-made antibody-array membranes were examined. Aggressive breast carcinoma MDA-MB-435 cells (with high hPar1 levels) were incubated with the antibody-array membranes before and after PAR₁ activation (15 minutes). […]

Test [3] concerns the target c-Yes (UniProt P07947 2-543). The test is described as above. The protocol:
as §1, §2

In test [4] the target is T2, Shc adaptor protein (66, 52 and 46 kDa isoforms) (human, UniProt P29353 1-583, limits assumed).
T2 construct: Full-length endogenous protein in cell lysates; three isoforms detected together; also called Shc adapter protein
T2 sequence (looked up): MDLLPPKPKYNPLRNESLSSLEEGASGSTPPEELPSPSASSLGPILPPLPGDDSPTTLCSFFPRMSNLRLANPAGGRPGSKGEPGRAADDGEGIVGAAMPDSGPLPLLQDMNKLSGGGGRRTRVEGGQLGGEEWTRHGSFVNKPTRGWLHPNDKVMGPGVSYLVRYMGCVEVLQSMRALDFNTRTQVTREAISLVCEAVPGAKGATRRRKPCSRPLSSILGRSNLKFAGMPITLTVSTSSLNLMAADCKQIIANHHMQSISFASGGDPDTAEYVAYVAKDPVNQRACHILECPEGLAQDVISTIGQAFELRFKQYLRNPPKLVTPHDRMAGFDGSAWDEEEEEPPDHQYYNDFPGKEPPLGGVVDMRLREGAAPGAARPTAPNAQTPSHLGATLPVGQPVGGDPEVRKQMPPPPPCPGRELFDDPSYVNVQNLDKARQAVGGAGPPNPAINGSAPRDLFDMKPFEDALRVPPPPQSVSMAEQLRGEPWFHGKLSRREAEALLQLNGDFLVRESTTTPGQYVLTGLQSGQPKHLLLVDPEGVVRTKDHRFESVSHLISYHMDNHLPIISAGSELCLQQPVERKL
The test is described as follows: association of Shc with PAR1 Y/A mutants (method not detailed).

Test [5] deals with T3, T7-tagged Etk/Bmx (UniProt P51813 1-675).
T3 construct: not shown: T7 tag
T3 sequence (looked up): T1 sequence (looked up)
Briefly: anti-HA immunoprecipitation, anti-T7 blot.

For test [6], the target named is T1, Etk/Bmx (epithelial tyrosine kinase), …. The test is described as follows: Etk/Bmx expressing cell lysates on GST-PAR2 C-tails.

Residue numbers refer to the chain shown, from its start. In names and notes the source's numbering stands.

Sequence of c-Yes (P07947 2-543 limits assumed): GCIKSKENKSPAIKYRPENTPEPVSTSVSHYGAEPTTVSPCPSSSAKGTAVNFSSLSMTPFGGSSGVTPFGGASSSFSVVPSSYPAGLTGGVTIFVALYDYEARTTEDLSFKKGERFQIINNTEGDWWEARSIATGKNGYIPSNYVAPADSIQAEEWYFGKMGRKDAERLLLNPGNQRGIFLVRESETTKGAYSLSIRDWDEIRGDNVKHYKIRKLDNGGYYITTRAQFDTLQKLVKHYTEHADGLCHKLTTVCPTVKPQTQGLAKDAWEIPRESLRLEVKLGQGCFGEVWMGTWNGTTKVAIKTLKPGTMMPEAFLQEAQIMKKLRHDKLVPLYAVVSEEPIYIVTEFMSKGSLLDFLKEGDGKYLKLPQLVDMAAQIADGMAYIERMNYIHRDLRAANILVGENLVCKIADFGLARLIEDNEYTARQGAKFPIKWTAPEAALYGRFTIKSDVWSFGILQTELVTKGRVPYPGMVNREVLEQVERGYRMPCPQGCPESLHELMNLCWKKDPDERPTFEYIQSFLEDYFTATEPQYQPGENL

Consider B1, for which the binding result in test [1] is listed as “binds”.

As to B2, the binding result in test [2] and in test [3] was “binds” in each case.

For B3, the binding result in test [4] is reported as “binds”.

Regarding B4, the binding result in test [5] was “binds”.

Consider B5, for which the binding result in test [4] is reported as “binds”.

With B6, in test [4], the binding result is “binds”.

Consider B7, for which the binding result in test [6] is on record as “binds”.
